Test results reported in the supplement of paper PMC9170038.

Test system: MS2 coat protein
Assay: apparent KD of MS2 coat protein; designed switch direction (-1 OFF switch, 1 ON switch): -1; higher = weaker reporter binding
How it was run: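 Designed RNA switches were transcribed on Illumina chips by stalled E. coli RNA polymerase and titrated with SNAP-549-labelled MS2 coat protein from 0.7 or 1.5 nM, doubling to 3 µM. Step length ran from 0.8–1.5 h at the lowest concentration to 10–20 min at the highest. The apparent KD is the median over clusters for each design, from curve-fitted normalised cluster fluorescence.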

[1] = Eterna round: R95, input ligand: microRNA oligo, concentration not stated
[2] = Eterna round: R95, input ligand: FMN 200 uM
[3] = Eterna round: R95, input ligand: none
[4] = input ligand: microRNA oligo, concentration not stated

| Sequence | apparent KD of MS2 coat protein (input ligand: FMN 200 uM) [nM] | apparent KD of MS2 coat protein (input ligand: none) [nM] | apparent KD of MS2 coat protein [1] [nM] | apparent KD of MS2 coat protein [2] [nM] | apparent KD of MS2 coat protein [3] [nM] | apparent KD of MS2 coat protein [4] [nM] |
| --- | --- | --- | --- | --- | --- | --- |
| UAUAUGUUAGGAUAUCUCGUCAUGGAGGAAACUCCAUGACGAGAGAAGGAACAUGAGGAUCACCCAUGUUUAUU [Mod of Fisker 25 - Jieux - Exclusion 4] (Eterna round: R97, puzzle: Exclusion 4) | 27.4 | 19 |  |  |  |  |
| UCGAGGUCAGGAUAUACAUGAGGAUCACCCAUGUUGAGAGAAGGUAGGAAAAGAGUAGGUAGAAGGGACGAGAG [JR_Exclu3_Sub046] (puzzle: Exclusion 3) |  |  | 26.1 |  |  |  |
| CGUCCGGCUUCCCUUCAAAACAUGAGGAUCACCCAUGUUUUUGUUUUUGCGAGCUUUUUGCUUUUUGCUCGUCUUGU [Even Better Attempt] (puzzle: Sensor v3, turn-off variant 1) |  |  | 12.5 | 20.1 | 19.9 |  |
| AGUACUAACACGGUAGUGUUAGUACAAUAAGCUUGUGAAACAUGAGGAUCACCCAUGUCCUCAUAAGCUCGUCUUAU [salish99_TOv2_r3_057] (puzzle: Sensor v3, turn-off variant 2) |  |  | 370 | 17.6 | 15.3 |  |
| UAAAAUAGUGUGAGGAUAUGCUGGUCCUUGGAUCAGCAGAAGGCACAUGAGGAUCACCCAUGUAAAUAAUAAUA [Mat - Exclusion 4 - JL Mod - D27] (puzzle: Brourd's mod of Exclusion 4) |  |  | 54.6 | 184 | 67.1 |  |
| UCUUGUUGUCCGUGAGAAGACAUGAGGAUCACCCAUGUUAGUUUGAUUAUGAUGUGUAAGUUUGUUGUUCGUUUUAU [JR_STOV1_v2_Sub072] (Eterna round: R97, puzzle: Sensor, turn-off variant 1) | 53.1 | 63.1 |  |  |  |  |
| GCCCGUGGGCAAGGAUAUCCUACGCUGUUCUGGUUCGUGUCUGUCACAUGAGGAUCACCCAUGUGGGAGAAGGUGCAUUUGGGU [Design 55] (Eterna round: R96, puzzle: Exclusion NG 2) | 14.1 | 17.3 |  |  |  | 11.1 |
| AACGGGACAGGAUAUGUCACGGAGAACAUGAGGAUCACCCAUGUGGCUUCGUGGUCUGUUGCAGAAGGGUCGAAAU [Vebedi] (Eterna round: R97, puzzle: Exclusion 5) | 19.6 | 11.9 |  |  |  |  |
| CUCAGGUCAGGAUAUGUAGACCGGUGCAGACACUACGGGAAACAGAAGGGACAUGAGGAUCACCCAUGUUCGUA [EX4 B.11] (Eterna round: R97, puzzle: Exclusion 4) | 45 | 30.4 |  |  |  |  |
| AAUUAUUAUUGAGGAUAUCGUAUUGAAACAAUACGAGAAGGCGGGAUAAACAUGAGGAUCACCCAUGUGAGCCUGAUGCUUGUG [Ex NG1 #41] (Eterna round: R96, puzzle: Exclusion NG 1) |  |  |  |  |  | 13.4 |
| UACACUGCAUGAGGAUCAAACAUGAGGAUCACCCAUGUAUAGCAGGCUUUUUGCACGUCUUAUAAUUAUGUAGUGUA [Electric Eye 15 - Jieux - Sensor, turn-off variant 1] (Eterna round: R97, puzzle: Sensor, turn-off variant 1) | 14.2 | 14.4 |  |  |  |  |
| GAGAAGGUAGGAUAUACGAAGAAAAAGGGUAGAAUAAGAACACAUGAGGAUCACCCAUGUAGAAGGACCAAGAG [Mat - Exclusion 2 - Mod of my Tesla design - D18] (puzzle: Exclusion 2) |  |  | 18.6 | 37.1 | 14.7 |  |
| AUCCUACAUGAGGAUCACCCAUGUCAGGAUAUCCAAGAAAUCUGGCCGUAUCGGCCAGGGAGAAGGGAUAUGGG [jl-ex1-4.64 ViennaUCT mod] (Eterna round: R97, puzzle: Exclusion 1) | 57.7 | 74.2 |  |  |  |  |
| AGGGAUAAAGGAUAUACAUGAGGAUCACCCAUGUUGAGGAAGGUUAGAGGUGGCGAUAGUAGAAGGUUAGGUAG [JR_Exclu3_Sub081] (puzzle: Exclusion 3) |  |  | 77 |  |  |  |
| ACAUGAGGAUCACCCAUGUCUGGCUGGUCCGCUCCGGCUGUUGAGGAUAUAGUUCGGUGUCCGCGCUAGAAGGUGAGGGCUGGC [Aenatbe mod 35] (Eterna round: R96, puzzle: Exclusion NG 3) | 21.8 | 31.3 |  |  |  | 21.2 |
| ACAAGCUUAAAAGGUGAUAACAUGAGGAUCACCCAUGUUCGUCUUAUAAAGAUCCUAUGUCGAAAGACGUAGGAUCA [Sensor 3, v1 - 69] (puzzle: Sensor v3, turn-off variant 1) |  |  | 28 | 21.2 | 22 |  |
| AAUUUGCAAGCGAGAUCCCACAUGAGGAUCACCCAUGUGCUCGUCUUAUAAGGUACUGUGACGAAAGUCACGGUACC [Mat - Sensor, turn-off var - Eli Mod - D92] (Eterna round: R97, puzzle: Sensor, turn-off variant 1) | 16.4 | 12.9 |  |  |  |  |

| Sequence | apparent KD of MS2 coat protein (input ligand: FMN 200 uM) [nM] | apparent KD of MS2 coat protein (input ligand: none) [nM] | apparent KD of MS2 coat protein [1] [nM] | apparent KD of MS2 coat protein [2] [nM] | apparent KD of MS2 coat protein [3] [nM] | apparent KD of MS2 coat protein [4] [nM] |
| --- | --- | --- | --- | --- | --- | --- |
| AGCUAGUCAGGAUAUUCUAAUAAUUACAUGAGGAUCACCCAUGUGAAUGGACAAGGGUGUGAAGAAGGGACUAGCG [Omei Ex5 A9] (Eterna round: R97, puzzle: Exclusion 5) | 429 | 1230 |  |  |  |  |
| GUGUACAGAGGAUAUGCUUGAAUCUAGCGAAGCUAGGUUCGACAUGAGGAUCACCCAUGUAGAAGGCUGUACAC [Dot plot directed A v3] (puzzle: Exclusion 2) |  |  | 13.4 |  |  |  |
| GCGCGAAGCUAGGAUAUGGGAGCGUCUUCGCUCCCAGAAGGAGCCACAUGAGGAUCACCCAUGUGGUGAUCCUG [eternacac ex6r4 sub14] (Eterna round: R97, puzzle: Exclusion 6) | 17 | 16.5 |  |  |  |  |
| ACAUGAGGAUCACCCAUGUGAAAAGAAUGGCUGACACAGAGAUAGGAUAUAUGUGCAUAUCAAACAUAGAAGGGUCAUAACUGG [Deportation 84 - Jieux - Exclusion NG 3] (Eterna round: R96, puzzle: Exclusion NG 3) | 28.4 | 30.5 |  |  |  | 29.4 |
| AUAUUGUGAGGAUAUGAACUUAGUAUCGAAAGAUUCUAAGUUCAGAAGGCACAUGAGGAUCACCCAUGUUUCUC [Long static hairpin v20] (Eterna round: R97, puzzle: Exclusion 4) | 808 | 81.9 |  |  |  |  |
| GCAUGGCGAGGAUAUACAUGAGGAUCACCCAUGUGAGAAUAAGAAGUGAGGAAGAAAAGUAGAAGGCGCUGUGG [Mat - Exclusion 3 - Mod of Salish D65] (puzzle: Exclusion 3) |  |  | 73.8 | 173 | 84.5 |  |
| AAGAUGCGGGUAGGAUAUGGAGAGAAAGAAAGACCAGAAGGAUUGGUCAUAUAACAUGAGGAUCACCCAUGUAUAUGUUGCGAA [EX ng 1 5] (Eterna round: R96, puzzle: Exclusion NG 1) | 19.6 | 21 |  |  |  | 16.2 |
| AUUCAUGCAGGAUAUACAUGAGGAUCACCCAUGUUAAUUUCUACAAGGCGGCAUCUAUGUAGAAGGGUAUGAAG [Eternabot (L2) Solution 33] (Eterna round: R97, puzzle: Exclusion 3) | 35.5 | 24.6 |  |  |  |  |
| GAGCUGAACUCAGGAUAUUGCGAGUCUUGGGUGACAGCUCUGACAUGAGGAUCACCCAUGUACUCCGAGAAGGGAGGCCGGUAA [Zainve] (Eterna round: R96, puzzle: Exclusion NG 2) | 125 | 185 |  |  |  | 113 |
| UGACGGAUAGGAUAUGUAUCGCCUGACAUGAGGAUCACCCAUGUGGUUCAUAAGUUGCCAACAGAAGGAUCAGAAA [Eternabot (L1) Solution 60] (Eterna round: R97, puzzle: Exclusion 5) | 129 | 180 |  |  |  |  |
| ACAUGAGGAUCACCCAUGUGACAACAAUGGCUGAUAUAGAAACAGGAUAUUCGUGAAUAUCUAACGAAGAAGGGUUAUGACUGG [Deportation 66 - Jieux - Exclusion NG 3] (Eterna round: R96, puzzle: Exclusion NG 3) | 50.4 | 54.1 |  |  |  | 43.1 |
| AUUUUGUCAGGAUAUUGUUAGUUUAGUUGUUUGUAUUAGUUCGAGAAGGGACAUGAGGAUCACCCAUGUGAUUA [Ex4 #73] (Eterna round: R97, puzzle: Exclusion 4) | 148 | 92.2 |  |  |  |  |
| GUGCUGGUAGGAUAUACAUGAGGAUCACCCAUGUGGCGUGACUCCUAUGGCAGCGCCGGUAGAAGGAUUAGAAG [Eternabot (L1) Solution 60] (Eterna round: R97, puzzle: Exclusion 3) | 188 | 261 |  |  |  |  |
| UCGGCGCGAGGAUAUACGUUUGCUUUUUUGGGUCGUUGCGUACAUGAGGAUCACCCAUGUAGAAGGCGCGCCGC [Apr-15 SS2-25] (puzzle: Exclusion 2) |  |  | 24.1 |  |  |  |
| GUGUACGGAGGAUAUAUGUGGGCAGCAUACGCUGCAGCUUCACAUGAGGAUCACCCAUGUAGAAGGCUGUACAC [Mat - Exclusion 2 - Mod of Hyphema - D102] (puzzle: Exclusion 2) |  |  | 21.4 |  |  |  |
| UAUAUAUAGUAAGGAUAUGUAUAUAUUUUAUCAACAGAAGGUACUGACAUGAGGAUCACCCAUGUUUUAGUGUGGGCAUGUAGA [JMF's solution 71] (Eterna round: R96, puzzle: Exclusion NG 1) |  |  |  |  |  | 54.2 |
| CGUGCGUAUGUGAGGAUAUGCUGGUCCUUGGCUCGGCAGAAGGCACAUGAGGAUCACCCAUGUGGUGUCGUACU [salish99_Bmod_ex4_069] (puzzle: Brourd's mod of Exclusion 4) |  |  | 50.2 |  |  |  |
